{"source": "patent US20090148437A1", "key": {"[1]": {"target": "human VEGF (human vascular endothelial growth factor) (human) (UniProt P15692)", "sequence (P15692 other isoform, or with tags, fused parts or gaps limits assumed)": "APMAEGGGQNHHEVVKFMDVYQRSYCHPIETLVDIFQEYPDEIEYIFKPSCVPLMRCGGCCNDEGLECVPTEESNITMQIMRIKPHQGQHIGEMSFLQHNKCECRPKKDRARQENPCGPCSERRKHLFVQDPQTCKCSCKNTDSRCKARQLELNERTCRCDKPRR", "experiment": "phage-displayed dAb, expt 2 (input 10^9): no trypsin 2 hr 37 C 250 rpm, capture on biotinylated rhVEGF"}, "[2]": {"target": "human VEGF (human vascular endothelial growth factor) (human) (UniProt P15692)", "experiment": "phage-displayed dAb, expt 1 (input 10^10): no trypsin (0 µg/ml) 1 hr room temp, capture on 50 nM biotinylated rhVEGF"}, "[3]": {"target": "human VEGF (human vascular endothelial growth factor) (human) (UniProt P15692)", "experiment": "receptor binding assay (inhibition of VEGF binding to VEGFR2)"}, "[4]": {"target": "human VEGF (human vascular endothelial growth factor) (human) (UniProt P15692)", "experiment": "BIAcore kinetics"}, "[5]": {"target": "human VEGF (human vascular endothelial growth factor) (human) (UniProt P15692)", "experiment": "phage-displayed dAb, expt 1 (input 10^10): trypsin 10 µg/ml 1 hr room temp, then capture on 50 nM biotinylated rhVEGF"}, "[6]": {"target": "human VEGF (human vascular endothelial growth factor) (human) (UniProt P15692)", "experiment": "phage-displayed dAb, expt 1 (input 10^10): trypsin 100 µg/ml 1 hr room temp, then capture on 50 nM biotinylated rhVEGF + streptavidin beads"}, "[7]": {"target": "human VEGF (human vascular endothelial growth factor) (human) (UniProt P15692)", "experiment": "phage-displayed dAb, expt 2 (input 10^9): trypsin 100 µg/ml 2 hr 37 C 250 rpm, then capture on biotinylated rhVEGF"}, "[8]": {"target": "human VEGF (human vascular endothelial growth factor) (human) (UniProt P15692)", "experiment": "monoclonal phage ELISA on biotinylated hVEGF (neutravidin plate) after 100 ug/ml trypsin 1 h 37 C"}, "[9]": {"target": "human VEGF (human vascular endothelial growth factor) (human) (UniProt P15692)", "experiment": "phage-displayed dAb, expt 2 (input 10^9): trypsin 100 µg/ml 1 hr 37 C 250 rpm, then capture on biotinylated rhVEGF"}, "[10]": {"target": "TNFR1 on MRC-5 cells (UniProt P19438)", "sequence (P19438 30-455 limits assumed)": "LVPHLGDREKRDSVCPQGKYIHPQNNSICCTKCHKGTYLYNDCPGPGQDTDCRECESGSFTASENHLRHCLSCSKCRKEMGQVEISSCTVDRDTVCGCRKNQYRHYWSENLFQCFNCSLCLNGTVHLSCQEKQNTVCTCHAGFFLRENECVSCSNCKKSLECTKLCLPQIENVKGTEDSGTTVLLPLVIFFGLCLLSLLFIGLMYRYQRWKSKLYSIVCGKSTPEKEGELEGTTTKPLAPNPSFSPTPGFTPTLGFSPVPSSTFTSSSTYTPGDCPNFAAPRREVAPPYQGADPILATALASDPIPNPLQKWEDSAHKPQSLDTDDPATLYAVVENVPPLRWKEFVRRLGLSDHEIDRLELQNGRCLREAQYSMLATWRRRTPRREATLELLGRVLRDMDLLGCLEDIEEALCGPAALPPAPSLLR", "experiment": "cell-based or functional assay"}, "[11]": {"target": "IL-R1-Fc (a fusion of IL-1RI and Fc) (UniProt P14778)", "sequence (P14778 18-336 limits assumed)": "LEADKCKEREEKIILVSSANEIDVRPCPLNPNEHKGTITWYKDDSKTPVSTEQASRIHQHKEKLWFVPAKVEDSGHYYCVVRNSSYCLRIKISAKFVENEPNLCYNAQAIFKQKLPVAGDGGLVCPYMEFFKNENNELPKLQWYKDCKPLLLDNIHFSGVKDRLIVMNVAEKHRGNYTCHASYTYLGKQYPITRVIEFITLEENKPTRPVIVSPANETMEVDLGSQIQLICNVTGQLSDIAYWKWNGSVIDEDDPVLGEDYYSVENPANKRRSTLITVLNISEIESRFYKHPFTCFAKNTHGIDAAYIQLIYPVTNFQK", "experiment": "phage-displayed dAb: no trypsin overnight 37 C, biopanning on 1 nM IL-R1-Fc"}, "[12]": {"target": "IL-R1-Fc (a fusion of IL-1RI and Fc) (UniProt P14778)", "experiment": "phage-displayed dAb: trypsin 100 µg/ml overnight 37 C, then biopanning on 1 nM IL-R1-Fc"}, "[13]": {"target": "IL-R1-Fc (a fusion of IL-1RI and Fc) (UniProt P14778)", "experiment": "phage-displayed dAb: no trypsin 1 hr room temp, biopanning on 1 nM IL-R1-Fc"}, "[14]": {"target": "IL-R1-Fc (a fusion of IL-1RI and Fc) (UniProt P14778)", "experiment": "phage-displayed dAb: trypsin 10 µg/ml 1 hr room temp, then biopanning on 1 nM IL-R1-Fc"}, "[15]": {"target": "IL-R1-Fc (a fusion of IL-1RI and Fc) (UniProt P14778)", "experiment": "phage-displayed dAb: trypsin 100 µg/ml overnight room temp, then biopanning on 1 nM IL-R1-Fc"}, "[16]": {"target": "IL-R1-Fc (a fusion of IL-1RI and Fc) (UniProt P14778)", "experiment": "phage-displayed dAb: trypsin 10 µg/ml overnight room temp, then biopanning on 1 nM IL-R1-Fc"}, "[17]": {"target": "IL-R1-Fc (a fusion of IL-1RI and Fc) (UniProt P14778)", "experiment": "phage-displayed dAb: trypsin 100 µg/ml 1 hr room temp, then biopanning on 1 nM IL-R1-Fc"}, "[18]": {"target": "IL-R1-Fc (a fusion of IL-1RI and Fc) (UniProt P14778)", "experiment": "phage-displayed dAb: trypsin 10 µg/ml overnight 37 C, then biopanning on 1 nM IL-R1-Fc"}, "[19]": {"target": "IL-R1-Fc (a fusion of IL-1RI and Fc) (UniProt P14778)", "experiment": "phage-displayed dAb: no trypsin overnight room temp, biopanning on 1 nM IL-R1-Fc"}, "[20]": {"target": "IL-1R1 (UniProt P14778)", "sequence (P14778 18-332 limits assumed)": "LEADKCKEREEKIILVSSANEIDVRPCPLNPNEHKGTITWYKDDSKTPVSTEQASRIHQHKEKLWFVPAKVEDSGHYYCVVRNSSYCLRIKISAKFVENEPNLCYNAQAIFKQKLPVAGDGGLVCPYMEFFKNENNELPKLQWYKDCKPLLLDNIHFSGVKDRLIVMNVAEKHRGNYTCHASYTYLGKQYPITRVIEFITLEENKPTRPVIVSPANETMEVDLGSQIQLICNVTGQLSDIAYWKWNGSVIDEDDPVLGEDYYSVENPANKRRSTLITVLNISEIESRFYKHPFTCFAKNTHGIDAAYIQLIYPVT", "experiment": "Receptor Binding Assay, inhibition of IL-1 binding to IL-R1 (column head says nM, cell says pM)"}}, "note": "“And” between values parts separate entries of the source, which are not always exact repeats. Equal entries are not always repeated."}
{"binder": "DOM15-10 (protein, from a related filing) VL: DIQMTQSPSSLSASVGDRVTITCRASQWIGPELSWYQQKPGKAPKLLIYHTSILQSGVPSRFSGSGSGTDFTLTISSLQPEDFATYYCQQYMFQPRTFGQGTKVEIRR", "values": [{"measurement": "output phage titre", "setting": "[1]", "result": "3e+08"}, {"measurement": "output phage titre", "setting": "[2]", "result": "7e+07"}, {"measurement": "EC50", "setting": "[3]", "result": 10.2, "unit": "nM"}, {"measurement": "Kd", "setting": "[4]", "result": 23.6, "unit": "nM"}, {"measurement": "output phage titre", "setting": "[5]", "result": "2.4e+08"}, {"measurement": "output phage titre", "setting": "[6]", "result": "1.1e+07"}, {"measurement": "output phage titre", "setting": "[7]", "result": 10000}, {"measurement": "OD450", "setting": "[8]", "result": "< 0.404"}, {"measurement": "output phage titre", "setting": "[9]", "result": 100000}]}
{"binder": "DOM15-10-11 (protein, from a related filing) VL: DIQMTQSPSSLSASVGDRVTITCRASQWIGPELRWYQQKPGKAPKLLIYHTSILQSGVPSRFSGSGSGTDFTLTISSLQPEDFATYYCQQYMFQPMTFGQGTKVEIRG", "values": [{"measurement": "EC50", "setting": "[3]", "result": 3.58, "unit": "nM"}, {"measurement": "Kd", "setting": "[4]", "result": 14.6, "unit": "nM"}]}
{"binder": "DOM1h-131-511 (protein) VH: EVQLLESGGGLVQPGGSLRLSCAASGFTFAHETMVWVRQAPGKGLEWVSHIPPVGQDPFYADSVKGRFTISRDNSKNTLYLQMNSLRAEDTAVYYCALLPKRGPWFDYWGQGTLVTVSS", "values": [{"measurement": "ND50, MRC-5 cell-based assay (IL-8 release)", "setting": "[10]", "result": "1.98 nM and 1.71 nM and 1.46 nM"}, {"measurement": "ND50, MRC-5 cell-based assay (IL-8 release); sample DOM1h-131-511 (230307CE)", "setting": "[10]", "result": 1.89, "unit": "nM"}]}
{"binder": "DOM1h-131-204 (protein, from a related filing) VH: EVQLSESGGGLVQPGGSLRLSCAASGFTFAHETMVWVRQAPGKGLEWVSHIPPDGQDPFYADSVKGRFTISRDNSKNTLYLQMNSLRAEDTAVYYCALLPNRGPWFDYWGQGTLVTVSS", "values": [{"measurement": "ND50, MRC-5 cell-based assay (IL-8 release); sample DOM1h-131-204 (230307CE)", "setting": "[10]", "result": 1.89, "unit": "nM"}]}
{"binder": "DOM1h-131-203 (protein, from a related filing) VH: EVQLWESGGGLVQPGGSLRLSCAASGFTFAHETMVWVRQAPGKGLEWVSHIPPDGQDPFYADSVKGRFTISRDNSKNTLYLQMNSLRAEDTAVYYCALLPKRGPWIDYWGQGTLVTVSS", "values": [{"measurement": "ND50, MRC-5 cell-based assay (IL-8 release); sample DOM1h-131-203 (230307CE)", "setting": "[10]", "result": 2.28, "unit": "nM"}]}
{"binder": "DOM4-130-54 (protein, from a related filing) VL: DIQMTQSPSSLSASVGDRVTITCRASQDIYLNLDWYQQKPGKAPKLLINFGSELQSGVPSRFSGSGYGTDFTLTISSLQPEDFATYYCQPSFYFPYTFGQGTKVEIKR", "values": [{"measurement": "output phage titre", "setting": "[11]", "result": "7.2e+09"}, {"measurement": "output phage titre", "setting": "[12]", "result": "2.04e+06"}, {"measurement": "output phage titre", "setting": "[13]", "result": "6.6e+09"}, {"measurement": "output phage titre", "setting": "[14]", "result": "7.2e+09"}, {"measurement": "output phage titre", "setting": "[15]", "result": "2.16e+09"}, {"measurement": "output phage titre", "setting": "[16]", "result": "7.2e+09"}, {"measurement": "output phage titre", "setting": "[17]", "result": "1.8e+10"}, {"measurement": "output phage titre", "setting": "[18]", "result": "3.84e+08"}, {"measurement": "output phage titre", "setting": "[19]", "result": "7.8e+09"}, {"measurement": "IC50", "setting": "[20]", "result": 0.28, "unit": "nM"}]}
{"binder": "DOM4-130-202 (protein, from a related filing) VL: DIQMTQSPSSLSASVGDRVTISCRASQDIYLNLDWYQQKPGKAPKLLISFGSELQSGVPSRFSGSGYGTDFTLTISSLQPEDSATYYCQPSFYYPYTFGQGTKVEIKR", "values": [{"measurement": "IC50", "setting": "[20]", "result": 0.254, "unit": "nM"}]}
{"binder": "DOM4-130-201 (protein, from a related filing) VL: DIQMTQSPSSLSASVGDRVTITCRASQDIYLNLDWYQQKPGKAPKLLIKFGSELQSGVPSRFSGSGYGTDFTLTISNLQPEDFATYYCQPSFYFPYTFGQGTKVEIKW", "values": [{"measurement": "IC50", "setting": "[20]", "result": 0.257, "unit": "nM"}]}
